Measured values published in patent publication KR20160022857A (dated 2016).

What follows are binders tested against T1, HER2-ECD-His 단백질 (human, UniProt P04626 23-652) (assay: SPR; IgG captured on goat anti-human IgG; HER2-ECD-His as analyte).
T1 construct: extracellular domain; Origin and limits of the construct are not described; not shown: His tag

Binder | fold decrease of koff (kd) vs hz1E11 [fold] | fold improvement of affinity (KD) vs hz1E11 [fold]
hz1E11-133 (IgG) (antibody, V domains shown, heavy variable region same as hz1E11) VH: EVQLVESGGGLVQPGGSLRLSCAASGFTFSSYTMSWVRQAPGKGLEWVAYISNGGGSTYYPDTVKGRFTISRDNAKNSLYLQMNSLRAEDTAVYYCARHLGGTASFDYWGQGTLVTVSS VL: DIQMTQSPSSLSASVGDRVTITCLASQTIGTWLAWYQQKPGKAPKLLIYVATSLADGVPSRFSGSGSGTDFTLTISSLQPEDFATYYCQQNAYAPWTFGQGTKVEIK | 8.4 | 15
hz1E11-154 (IgG) (antibody, V domains shown, heavy variable region same as hz1E11) VH: EVQLVESGGGLVQPGGSLRLSCAASGFTFSSYTMSWVRQAPGKGLEWVAYISNGGGSTYYPDTVKGRFTISRDNAKNSLYLQMNSLRAEDTAVYYCARHLGGTASFDYWGQGTLVTVSS VL: DIQMTQSPSSLSASVGDRVTITCLASQTIGTWLAWYQQKPGKAPKLLIYVATSLADGVPSRFSGSGSGTDFTLTISSLQPEDFATYYCQQTAFSPWTFGQGTKVEIK | 8.4 | 20

What follows are binders tested against T1, HER2-ECD-His 단백질 (assay: SPR (Biacore 3000); HER2-ECD-His amine-coupled on CM5; periplasmic extract as analyte).

Binder | koff 감소 정도 (Fold) vs hz1E11 [fold]
M1-L-A1-3-1C3 (hz1E11-3), periplasmic extract (antibody, V domains shown, Clone as expressed in bacteria, periplasmic extract; LCDR3 DQMYSTPWT) VH: EVQLVESGGGLVQPGGSLRLSCAASGFTFSSYTMSWVRQAPGKGLEWVAYISNGGGSTYYPDTVKGRFTISRDNAKNSLYLQMNSLRAEDTAVYYCARHLGGTASFDYWGQGTLVTVSS VL: DIQMTQSPSSLSASVGDRVTITCLASQTIGTWLAWYQQKPGKAPKLLIYVATSLADGVPSRFSGSGSGTDFTLTISSLQPEDFATYYCDQMYSTPWTFGQGTKVEIK | 7.4
M3-L-A1-3-1A12 (hz1E11-133), periplasmic extract (antibody, V domains shown, Clone as expressed in bacteria (IPTG), periplasmic extract; LCDR3 QQNAYAPWT) VH: EVQLVESGGGLVQPGGSLRLSCAASGFTFSSYTMSWVRQAPGKGLEWVAYISNGGGSTYYPDTVKGRFTISRDNAKNSLYLQMNSLRAEDTAVYYCARHLGGTASFDYWGQGTLVTVSS VL: DIQMTQSPSSLSASVGDRVTITCLASQTIGTWLAWYQQKPGKAPKLLIYVATSLADGVPSRFSGSGSGTDFTLTISSLQPEDFATYYCQQNAYAPWTFGQGTKVEIK | 30.4
M3-L-A1-3-1F11 (hz1E11-154), periplasmic extract (antibody, V domains shown, Clone as expressed in bacteria, periplasmic extract; LCDR3 QQTAFSPWT) VH: EVQLVESGGGLVQPGGSLRLSCAASGFTFSSYTMSWVRQAPGKGLEWVAYISNGGGSTYYPDTVKGRFTISRDNAKNSLYLQMNSLRAEDTAVYYCARHLGGTASFDYWGQGTLVTVSS VL: DIQMTQSPSSLSASVGDRVTITCLASQTIGTWLAWYQQKPGKAPKLLIYVATSLADGVPSRFSGSGSGTDFTLTISSLQPEDFATYYCQQTAFSPWTFGQGTKVEIK | 9.7
M3-L-A1-3-2C2 (antibody, V domains shown, hz1E11 variant, periplasmic extract; substitutions derived from the printed CDR3 against hz1E11) VH: EVQLVESGGGLVQPGGSLRLSCAASGFTFSSYTMSWVRQAPGKGLEWVAYISNGGGSTYYPDTVKGRFTISRDNAKNSLYLQMNSLRAEDTAVYYCARHLGGTASFDYWGQGTLVTVSS VL: DIQMTQSPSSLSASVGDRVTITCLASQTIGTWLAWYQQKPGKAPKLLIYVATSLADGVPSRFSGSGSGTDFTLTISSLQPEDFATYYCQQLGFIPWTFGQGTKVEIK | 2
M3-L-A3-4-2E8 (antibody, V domains shown, hz1E11 variant, periplasmic extract; substitutions derived from the printed CDR3 against hz1E11) VH: EVQLVESGGGLVQPGGSLRLSCAASGFTFSSYTMSWVRQAPGKGLEWVAYISNGGGSTYYPDTVKGRFTISRDNAKNSLYLQMNSLRAEDTAVYYCARHLGGTASFDYWGQGTLVTVSS VL: DIQMTQSPSSLSASVGDRVTITCLASQTIGTWLAWYQQKPGKAPKLLIYVATSLADGVPSRFSGSGSGTDFTLTISSLQPEDFATYYCQQIAYVPWTFGQGTKVEIK | 5.9
M3-LH-A3-3-2F1 (antibody, V domains shown, substitutions derived from the printed CDR3) VH: EVQLVESGGGLVQPGGSLRLSCAASGFTFSSYTMSWVRQAPGKGLEWVAYISNGGGSTYYPDTVKGRFTISRDNAKNSLYLQMNSLRAEDTAVYYCARHLGGTASFDYWGQGTLVTVSS VL: DIQMTQSPSSLSASVGDRVTITCLASQTIGTWLAWYQQKPGKAPKLLIYVATSLADGVPSRFSGSGSGTDFTLTISSLQPEDFATYYCQQNAYNPWTFGQGTKVEIK | 4.4
M3-LH-A1-1-1H1 (antibody, V domains shown) VH: EVQLVESGGGLVQPGGSLRLSCAASGFTFSSYTMSWVRQAPGKGLEWVAYISNGGGSTYYPDTVKGRFTISRDNAKNSLYLQMNSLRAEDTAVYYCARNYGGTASFDYWGQGTLVTVSS VL: DIQMTQSPSSLSASVGDRVTITCLASQTIGTWLAWYQQKPGKAPKLLIYVATSLADGVPSRFSGSGSGTDFTLTISSLQPEDFATYYCQQNFIAPWTFGQGTKVEIK | 0.7
M1-LH-A3-3-1A6 (antibody, V domains shown) VH: EVQLVESGGGLVQPGGSLRLSCAASGFTFSSYTMSWVRQAPGKGLEWVAYISNGGGSTYYPDTVKGRFTISRDNAKNSLYLQMNSLRAEDTAVYYCARNYGGTASFDYWGQGTLVTVSS VL: DIQMTQSPSSLSASVGDRVTITCLASQTIGTWLAWYQQKPGKAPKLLIYVATSLADGVPSRFSGSGSGTDFTLTISSLQPEDFATYYCQQLVRTPWTFGQGTKVEIK | 5.8
M3-LH-A3-3-2A5 (antibody, V domains shown) VH: EVQLVESGGGLVQPGGSLRLSCAASGFTFSSYTMSWVRQAPGKGLEWVAYISNGGGSTYYPDTVKGRFTISRDNAKNSLYLQMNSLRAEDTAVYYCARHWGGTASFDYWGQGTLVTVSS VL: DIQMTQSPSSLSASVGDRVTITCLASQTIGTWLAWYQQKPGKAPKLLIYVATSLADGVPSRFSGSGSGTDFTLTISSLQPEDFATYYCQQMFSTPWTFGQGTKVEIK | 3.6
M3-LH-A1-2-2F4 (antibody, V domains shown) VH: EVQLVESGGGLVQPGGSLRLSCAASGFTFSSYTMSWVRQAPGKGLEWVAYISNGGGSTYYPDTVKGRFTISRDNAKNSLYLQMNSLRAEDTAVYYCARNLGGTASFDYWGQGTLVTVSS VL: DIQMTQSPSSLSASVGDRVTITCLASQTIGTWLAWYQQKPGKAPKLLIYVATSLADGVPSRFSGSGSGTDFTLTISSLQPEDFATYYCQQLVRIPWTFGQGTKVEIK | 3.2
